Data on seven substances can be found in US20130117870.

Common to all, as to test: cell_activity
Data set [1] relates to GHRHR2.3 TALEN pair (synthetic construct). To be noted: mRNA, female pig fibroblasts; male 32.5; puro-free plasmid G-418 29.
Data set [2] relates to p65 (p6511.1) TALEN pair (synthetic construct). Particulars: 10 ng/ul mRNA each, porcine zygotes.
Data set [3] has as its system LDLRE4.2 TALEN pair (synthetic construct). To be noted: male pig fibroblasts; female 19.
For data set [4], the system named is DMDE6 TALEN pair (synthetic construct). To be noted: pig fibroblasts.
In data set [5] the test system is LDLRE2.1 (LDLR2.1) TALEN pair (synthetic construct). To be noted: mRNA, pig fibroblasts, 30 C; plasmid 14.4-21.5.
The subject of data set [6] is DMDE7.1 TALEN pair (synthetic construct). Particulars: SURVEYOR, pig fibroblasts; 27 in Table 1.
The subject of data set [7] is ACAN12 TALEN pair (+63) (synthetic construct). To be noted: SURVEYOR, bovine fibroblasts; 29 in Table 1.
Data set [8] relates to ACAN12 TALEN pair (+231) (synthetic construct). Particulars: +231 scaffold in fibroblasts; indels confirmed in bovine embryos (Table 2).

On to porcine GHRHR target, for which the activity (% modified (day 3)) in data set [1] came out at 35.
On to porcine RELA (p65) target, for which, in data set [2], the activity (% embryos with indels (16/56)) is 29.
In data set [3], porcine LDLR exon 4 target came in with an activity (% modified (day 3)) of 20.
For porcine DMD exon 6 target, in data set [4], the activity (% modified (day 3)) was determined as 25.
The substance “CTCCTACAAGTGGATTGTGATGGGAACACCGAGTGCAAGGACGGGTCCG (double strand) [porcine LDLR exon 2 target]” gave an activity (% modified (day 3)) in data set [5] of 34.
For porcine DMD exon 7 target, the activity (% chromosomes cleaved) in data set [6] turned out to be 38.
For the substance bovine ACAN12 target, the activity (% chromosomes cleaved) is 25 in data set [7] and less than 1 in data set [8].
